Molecular target: EBV DNA polymerase BALF5 catalytic subunit, full-length (Epstein-Barr Virus) (UniProt P03198)
Experiment: cell-based or functional assay

Chain of EBV DNA polymerase BALF5 catalytic subunit, full-length (Epstein-Barr Virus) (P03198 1-1015, tags or fused parts left off): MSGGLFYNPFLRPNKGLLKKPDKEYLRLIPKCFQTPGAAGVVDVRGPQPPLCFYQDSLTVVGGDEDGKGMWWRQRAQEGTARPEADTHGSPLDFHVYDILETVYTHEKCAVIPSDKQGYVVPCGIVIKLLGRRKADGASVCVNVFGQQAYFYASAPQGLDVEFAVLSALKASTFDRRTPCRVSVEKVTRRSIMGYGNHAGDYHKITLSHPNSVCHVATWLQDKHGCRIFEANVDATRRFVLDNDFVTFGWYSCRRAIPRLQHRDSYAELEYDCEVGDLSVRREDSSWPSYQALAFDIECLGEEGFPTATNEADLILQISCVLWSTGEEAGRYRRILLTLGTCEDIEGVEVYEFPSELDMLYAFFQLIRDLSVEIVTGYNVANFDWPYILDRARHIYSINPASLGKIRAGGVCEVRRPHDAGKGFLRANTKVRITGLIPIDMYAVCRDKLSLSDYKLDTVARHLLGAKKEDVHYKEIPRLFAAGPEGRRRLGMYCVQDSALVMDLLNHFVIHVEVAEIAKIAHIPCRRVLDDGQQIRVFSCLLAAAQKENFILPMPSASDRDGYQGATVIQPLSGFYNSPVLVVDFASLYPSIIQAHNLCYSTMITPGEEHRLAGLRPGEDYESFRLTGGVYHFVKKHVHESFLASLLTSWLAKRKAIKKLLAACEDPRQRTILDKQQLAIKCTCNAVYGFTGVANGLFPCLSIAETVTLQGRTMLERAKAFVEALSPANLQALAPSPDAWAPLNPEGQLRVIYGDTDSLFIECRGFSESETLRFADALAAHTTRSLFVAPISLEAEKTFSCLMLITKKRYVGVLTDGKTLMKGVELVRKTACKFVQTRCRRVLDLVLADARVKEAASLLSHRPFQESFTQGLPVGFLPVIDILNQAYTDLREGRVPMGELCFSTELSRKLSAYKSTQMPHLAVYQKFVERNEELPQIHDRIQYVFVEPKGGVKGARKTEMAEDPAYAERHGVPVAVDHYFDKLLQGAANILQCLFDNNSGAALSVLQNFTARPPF

EBV BMRF1 processivity factor, full-length (from UniProt P03191 1-404)
DNA polymerase elongation activity on activated calf thymus DNA at 100 mM ammonium sulfate: > 100 fold

Reference: patent publication US20150064747A1
